Data set [1] concerns the molecule itself. Description: SEC.
Data set [2] has as its target T1, BAI3_eCUB^253 (C-terminal extended CUB domain of BAI3, aa. 25-253) (human, UniProt O60242 25-253).
T1 sequence (looked up): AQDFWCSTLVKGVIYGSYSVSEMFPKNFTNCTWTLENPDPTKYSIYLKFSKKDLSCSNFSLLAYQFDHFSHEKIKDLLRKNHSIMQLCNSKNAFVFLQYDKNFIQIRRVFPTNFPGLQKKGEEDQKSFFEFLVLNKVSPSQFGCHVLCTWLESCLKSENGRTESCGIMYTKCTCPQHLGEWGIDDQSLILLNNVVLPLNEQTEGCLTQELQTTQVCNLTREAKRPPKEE
Description: ITC.

Data set [3] concerns the molecule itself. In words: SEC-MALS.
The target of data set [4] is T2, BAI3 extracellular domain (ECD) (human, UniProt O60242 25-880).
T2 sequence (looked up): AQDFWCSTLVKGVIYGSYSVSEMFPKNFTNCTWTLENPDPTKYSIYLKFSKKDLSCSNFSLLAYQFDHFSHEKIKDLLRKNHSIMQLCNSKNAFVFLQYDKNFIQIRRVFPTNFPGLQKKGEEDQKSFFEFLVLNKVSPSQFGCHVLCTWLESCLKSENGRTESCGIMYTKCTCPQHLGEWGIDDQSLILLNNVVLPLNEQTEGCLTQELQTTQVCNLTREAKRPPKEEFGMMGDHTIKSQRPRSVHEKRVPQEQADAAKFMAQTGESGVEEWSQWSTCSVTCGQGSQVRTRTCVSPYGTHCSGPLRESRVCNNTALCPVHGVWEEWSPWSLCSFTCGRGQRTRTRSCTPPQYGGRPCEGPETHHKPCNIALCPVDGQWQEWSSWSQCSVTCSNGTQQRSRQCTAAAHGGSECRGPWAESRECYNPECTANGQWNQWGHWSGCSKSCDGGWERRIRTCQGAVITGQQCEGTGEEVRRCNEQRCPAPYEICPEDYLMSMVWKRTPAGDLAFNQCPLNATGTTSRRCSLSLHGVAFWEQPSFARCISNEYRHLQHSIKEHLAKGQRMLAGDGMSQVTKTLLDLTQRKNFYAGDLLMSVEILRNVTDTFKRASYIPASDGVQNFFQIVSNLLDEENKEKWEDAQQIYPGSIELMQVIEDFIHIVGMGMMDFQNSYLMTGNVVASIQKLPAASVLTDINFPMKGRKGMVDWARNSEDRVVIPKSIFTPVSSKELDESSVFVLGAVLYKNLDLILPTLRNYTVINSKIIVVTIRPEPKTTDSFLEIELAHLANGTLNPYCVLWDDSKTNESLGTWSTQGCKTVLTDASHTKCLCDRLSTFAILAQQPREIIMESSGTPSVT
Description: ITC.

Data set [5] deals with the molecule itself. In words: SEC. This is another data set of the same source.

Positions count from the first letter of the chain named. Names may count otherwise. “And” between values parts separate entries of the source, which are not always exact repeats. Equal values may be shown once.

B1: C1ql1_gC1q D208N (domain or fragment, mouse)
chain: TTVPRVAFYAGLKNPHEGYEVLKFDDVVTNLGNNYDAASGKFTCNIPGTYFFTYHVLMRGGDGTSMWADLCKNGQVRASAIAQNADQNYDYASNSVILHLDAGDEVFIKLDGGKAHGGNSNKYSTFSGFIIYSD
Regarding B1, the binding result in data set [1] was “binds”. Further, the “fold weaker binding than wild type” value in data set [2] is roughly 9 fold.

B2: C1ql1_gC1q D214N (domain or fragment, mouse)
chain: B1 chain with N84D, D90N
Regarding B2, the binding result in data set [2] was “binds”.

B3: C1ql1_gC1q D210N (domain or fragment, mouse)
chain: B1 chain with N84D, D86N
With B3, in data set [2], the binding result is on record as “binds”.

B4: C1ql1_gC1q A209S (domain or fragment, mouse)
chain: B1 chain with N84D, A85S
On to B4, for which the binding result in data set [2] is given as “binds”.

B5: C1ql1_gC1q (globular C1q domain of mouse C1ql1), wild type (domain or fragment)
chain: ATYTTVPRVAFYAGLKNPHEGYEVLKFDDVVTNLGNNYDAASGKFTCNIPGTYFFTYHVLMRGGDGTSMWADLCKNGQVRASAIAQDADQNYDYASNSVILHLDAGDEVFIKLDGGKAHGGNSNKYSTFSGFIIYSD
B5: the “stoichiometry N” value in data set [3] was 6 and 3; in data set [2], 3 eCUB molecules per gC1q trimer. For the same molecule, the dissociation constant (Kd) in data set [4] was roughly 1100 nM; in data set [2], roughly 150 nM.

B6: full-length C1ql1, bacteria-expressed (without signal peptide) (natural protein, mouse, UniProt O88992 17-258, looked up)
chain: GPDGHYEMLGTCRMVCDPYPARGPGAGARSDGGDALSEQSGAPPPSTLVQGPQGKPGRTGKPGPPGPPGDRGPPGPVGPPGEKGEPGKPGPPGLPGSGGSGAISTATYTTVPRVAFYAGLKNPHEGYEVLKFDDVVTNLGNNYDAASGKFTCNIPGTYFFTYHVLMRGGDGTSMWADLCKNGQVRASAIAQDADQNYDYASNSVILHLDAGDEVFIKLDGGKAHGGNSNKYSTFSGFIIYSD
For B6, in data set [5], the “stoichiometry N” value was 6 and 3.

Source of the values: PMC12749725 (Nature Communications, 2025).
